Source: US20230399394A1 (SUNSHINE GUOJIAN PHARMACEUTICAL SHANGHAI, published 2023)

What was measured:
[1] = molecular target: T1, IL-33 mutant protein E44A (human, UniProt O95760 112-270); experiment: ELISA as Example 9; row E44A against WT-1
T1 construct: Prokaryotic expression
T1 chain: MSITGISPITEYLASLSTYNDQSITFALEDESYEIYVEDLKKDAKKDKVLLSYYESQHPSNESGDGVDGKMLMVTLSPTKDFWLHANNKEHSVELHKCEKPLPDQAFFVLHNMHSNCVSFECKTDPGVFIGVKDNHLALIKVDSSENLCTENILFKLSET
Protocol: (§1) SA protein was diluted to 2 μg/mL to coat ELISA plate at 100 μL/well overnight at 4° C. The plate was washed with PBST (PBS containing 0.05% Tween20) for 3 times, and blocked with 2% BSA prepared in PBS at 200 μL/well, at room temperature for 2 h. After the plate was washed twice with PBST, IL-33-his-biotin protein was diluted to 1 μg/mL with 1% BSA prepared in PBST, and was added to ELISA plate at 100 μL/well. The plate was incubated at room temperature for 1 h, and each monoclonal antibody was diluted with 1% BSA prepared in PBST in a 3-fold gradient. The highest concentration of antibody was 10 μg/mL, and the antibody was diluted for 12 gradients. Each diluted monoclonal antibody was added to ELISA wells with 100 μL/well, and the plate was incubated at room temperature for 1 h. Each sample was added to duplicate wells in parallel. The plate was washed with PBST for 3 times, and HRP-anti human IgG Fc secondary antibody prepared with PBST was diluted at an appropriate ratio, and was added to ELISA wells at 100 μL/well. […] Each reaction solution was shaken uniformly and OD450 nm was read on a microplate reader. The data was analyzed and EC₅₀ was calculated.
(§2) Subsequently, according to the experimental method of Example 9, the affinity of the above mutant proteins to 874F7-Hu1 was determined, and IL-33 proteins (WT-1, WT-2, WT-3, and WT-4) without any mutation were set as controls.

[2] = molecular target: T2, IL-33 protein without any mutation (WT) (human, UniProt O95760 112-270); experiment: ELISA as Example 9; row WT-2
T2 construct: Control of the alanine scan (four runs WT-1 to WT-4); also called WT-1; WT-2
T2 sequence: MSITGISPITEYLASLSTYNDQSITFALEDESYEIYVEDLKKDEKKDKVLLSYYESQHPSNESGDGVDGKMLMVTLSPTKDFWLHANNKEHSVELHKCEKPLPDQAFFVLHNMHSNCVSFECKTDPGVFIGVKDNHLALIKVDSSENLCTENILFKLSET
Protocol: as §1, §2

[3] = molecular target: T3, IL-33 mutant protein L51A (human, UniProt O95760 112-270); experiment: ELISA as Example 9; row L51A against WT-2
T3 construct: Prokaryotic expression
T3 chain: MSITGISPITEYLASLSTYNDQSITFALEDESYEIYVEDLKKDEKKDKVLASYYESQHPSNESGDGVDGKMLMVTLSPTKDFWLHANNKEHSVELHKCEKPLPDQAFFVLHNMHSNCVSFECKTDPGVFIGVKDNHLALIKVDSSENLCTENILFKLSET
Protocol: as §1, §2

[4] = molecular target: T4, IL-33 mutant protein S60A (human, UniProt O95760 112-270); experiment: ELISA as Example 9; row S60A
T4 construct: Prokaryotic expression; also called 560A
T4 chain: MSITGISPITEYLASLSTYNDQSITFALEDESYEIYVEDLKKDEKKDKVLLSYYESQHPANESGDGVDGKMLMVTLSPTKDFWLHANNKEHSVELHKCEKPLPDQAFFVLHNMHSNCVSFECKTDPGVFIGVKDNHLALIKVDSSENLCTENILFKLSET
Protocol: as §1, §2

[5] = molecular target: T4, IL-33 mutant protein S60A; experiment: ELISA as Example 9; row S60A against WT-1
Protocol: as §1, §2

[6] = molecular target: T5, IL-33 mutant protein E55A (human, UniProt O95760 112-270); experiment: ELISA as Example 9; row E55A against WT-2
T5 construct: Prokaryotic expression
T5 chain: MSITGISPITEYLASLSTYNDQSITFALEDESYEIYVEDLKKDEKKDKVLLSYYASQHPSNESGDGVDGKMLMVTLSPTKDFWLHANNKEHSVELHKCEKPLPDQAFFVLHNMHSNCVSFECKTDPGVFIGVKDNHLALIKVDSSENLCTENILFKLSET
Protocol: as §1, §2

[7] = molecular target: T6, IL-33 mutant protein S52A (human, UniProt O95760 112-270); experiment: ELISA as Example 9; row S52A
T6 construct: Prokaryotic expression
T6 chain: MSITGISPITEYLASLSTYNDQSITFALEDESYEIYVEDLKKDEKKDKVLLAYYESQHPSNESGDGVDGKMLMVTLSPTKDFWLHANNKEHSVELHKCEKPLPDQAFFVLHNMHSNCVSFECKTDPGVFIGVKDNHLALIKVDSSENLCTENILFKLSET
Protocol: as §1, §2

[8] = molecular target: T7, IL-33 mutant protein V49A (human, UniProt O95760 112-270); experiment: ELISA by the method of Example 9 with the IL-33 mutant protein on the plate, 874F7-Hu1 in serial dilution, HRP anti-human IgG Fc, absorbance 450 nm
T7 construct: Prokaryotic expression
T7 chain: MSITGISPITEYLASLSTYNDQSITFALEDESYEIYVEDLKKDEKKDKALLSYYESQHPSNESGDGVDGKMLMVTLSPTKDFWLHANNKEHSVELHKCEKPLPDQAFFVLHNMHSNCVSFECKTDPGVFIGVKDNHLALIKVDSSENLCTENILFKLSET

[9] = molecular target: T8, IL-33 mutant protein H58A (human, UniProt O95760 112-270); experiment: ELISA as Example 9; row H58A against WT-1
T8 construct: Prokaryotic expression
T8 chain: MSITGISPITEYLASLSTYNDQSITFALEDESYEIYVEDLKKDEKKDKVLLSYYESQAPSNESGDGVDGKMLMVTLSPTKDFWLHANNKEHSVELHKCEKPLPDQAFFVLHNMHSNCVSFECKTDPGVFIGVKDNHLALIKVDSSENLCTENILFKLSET
Protocol: as §1, §2

Affinity decline ratio [1]: 0.6 fold | EC50 [2]: 0.13 nM | Affinity decline ratio [3]: 6.8 fold | EC50 [4]: 5.31 nM | Affinity decline ratio [5]: 23.2 fold | Affinity decline ratio [6]: 2.5 fold | EC50 [7]: 1.96 nM | EC50 (read off the curve) [8]: ~3 nM | Affinity decline ratio [9]: 1.9 fold
B1: 874F7-Hu1 (antibody, human IgG4 S228P, kappa)
heavy: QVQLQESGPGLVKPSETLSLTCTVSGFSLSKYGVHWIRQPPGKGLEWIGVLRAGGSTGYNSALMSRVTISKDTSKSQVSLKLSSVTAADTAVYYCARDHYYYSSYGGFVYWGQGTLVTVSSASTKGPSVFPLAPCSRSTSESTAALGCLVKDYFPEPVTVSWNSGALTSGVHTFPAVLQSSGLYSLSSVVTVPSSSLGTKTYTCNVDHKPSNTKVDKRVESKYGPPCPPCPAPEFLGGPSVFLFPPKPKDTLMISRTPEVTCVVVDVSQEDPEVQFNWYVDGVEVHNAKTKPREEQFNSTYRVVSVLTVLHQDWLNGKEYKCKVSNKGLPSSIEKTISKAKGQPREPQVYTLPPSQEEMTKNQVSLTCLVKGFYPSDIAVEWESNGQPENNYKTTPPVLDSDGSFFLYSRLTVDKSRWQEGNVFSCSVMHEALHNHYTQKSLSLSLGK
light: DIQMTQSPSSVSASVGDRVTITCLASQTIGAWLAWYQQKPGKSPKLLIYAATRLADGVPSRFSGSGSGTDFTLTISSLQPEDFATYYCQQLDSSPYTFGQGTKVEIKRTVAAPSVFIFPPSDEQLKSGTASVVCLLNNFYPREAKVQWKVDNALQSGNSQESVTEQDSKDSTYSLSSTLTLSKADYEKHKVYACEVTHQGLSSPVTKSFNRGEC
notes: also called 874F7-Hul; humanized antibody 874F7-Hu1
